Experimental data from doi:10.1101/2023.05.10.540157 (bioRxiv, 2023).
Read-outs that look alike come from different tables or passages of the source.

Columns and labels:
[1] = biological target: T1, mineralocorticoid receptor (MR), NanoBiT fusion LgBiT-MR (UniProt P08235 1-984); assay: split reporter
T1 sequence: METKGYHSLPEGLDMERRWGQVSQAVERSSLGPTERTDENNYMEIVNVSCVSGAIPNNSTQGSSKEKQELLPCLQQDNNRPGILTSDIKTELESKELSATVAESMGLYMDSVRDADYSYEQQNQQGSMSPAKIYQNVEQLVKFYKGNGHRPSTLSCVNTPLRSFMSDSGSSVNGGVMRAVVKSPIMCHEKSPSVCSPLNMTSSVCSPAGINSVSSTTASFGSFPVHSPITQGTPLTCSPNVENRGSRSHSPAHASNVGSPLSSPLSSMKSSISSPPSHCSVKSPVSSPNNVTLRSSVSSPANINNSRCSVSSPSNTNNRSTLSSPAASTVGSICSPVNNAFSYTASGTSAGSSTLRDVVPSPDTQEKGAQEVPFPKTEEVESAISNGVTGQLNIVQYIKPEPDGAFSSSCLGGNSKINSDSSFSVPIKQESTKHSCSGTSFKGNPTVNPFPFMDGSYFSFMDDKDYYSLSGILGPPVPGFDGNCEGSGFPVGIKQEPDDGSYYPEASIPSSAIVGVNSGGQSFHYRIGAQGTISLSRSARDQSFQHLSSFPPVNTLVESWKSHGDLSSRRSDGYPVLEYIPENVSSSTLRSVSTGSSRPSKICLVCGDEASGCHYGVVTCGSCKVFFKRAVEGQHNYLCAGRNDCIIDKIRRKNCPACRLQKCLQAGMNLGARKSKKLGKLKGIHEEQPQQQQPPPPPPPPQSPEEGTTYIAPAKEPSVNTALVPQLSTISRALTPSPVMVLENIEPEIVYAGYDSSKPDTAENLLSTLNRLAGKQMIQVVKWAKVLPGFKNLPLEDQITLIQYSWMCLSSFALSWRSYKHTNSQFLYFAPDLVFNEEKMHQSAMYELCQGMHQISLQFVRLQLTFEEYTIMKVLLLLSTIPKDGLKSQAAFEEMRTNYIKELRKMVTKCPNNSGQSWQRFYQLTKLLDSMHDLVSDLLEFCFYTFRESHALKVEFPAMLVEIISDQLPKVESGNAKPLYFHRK

[2] = biological target: T1, mineralocorticoid receptor (MR), …; assay: split reporter; remark: listed apart in the source

- fold induction of NanoBiT luminescence versus solvent [1]: ~6 fold
- fold induction of NanoBiT luminescence versus solvent [2]: ~8 fold
B1: glucocorticoid receptor (GR), NanoBiT fusion GR-SmBiT (receptor)
chain: MDSKESLTPGREENPSSVLAQERGDVMDFYKTLRGGATVKVSASSPSLAVASQSDSKQRRLLVDFPKGSVSNAQQPDLSKAVSLSMGLYMGETETKVMGNDLGFPQQGQISLSSGETDLKLLEESIANLNRSTSVPENPKSSASTAVSAAPTEKEFPKTHSDVSSEQQHLKGQTGTNGGNVKLYTTDQSTFDILQDLEFSSGSPGKETNESPWRSDLLIDENCLLSPLAGEDDSFLLEGNSNEDCKPLILPDTKPKIKDNGDLVLSSPSNVTLPQVKTEKEDFIELCTPGVIKQEKLGTVYCQASFPGANIIGNKMSAISVHGVSTSGGQMYHYDMNTASLSQQQDQKPIFNVIPPIPVGSENWNRCQGSGDDNLTSLGTLNFPGRTVFSNGYSSPSMRPDVSSPPSSSSTATTGPPPKLCLVCSDEASGCHYGVLTCGSCKVFFKRAVEGQHNYLCAGRNDCIIDKIRRKNCPACRYRKCLQAGMNLEARKTKKKIKGIQQATTGVSQETSENPGNKTIVPATLPQLTPTLVSLLEVIEPEVLYAGYDSSVPDSTWRIMTTLNMLGGRQVIAAVKWAKAIPGFRNLHLDDQMTLLQYSWMFLMAFALGWRSYRQSSANLLCFAPDLIINEQRMTLPCMYDQCKHMLYVSSELHRLQVSYEEYLCMKTLLLLSSVPKDGLKSQELFDEIRMTYIKELGKAIVKREGNSSQNWQRFYQLTKLLDSMHEVVENLLNYCFQTFLDKTMSIEFPEMLAEIITNQIPKYSNGNIKKLLFHQK
